B1: Mitochondrial intermembrane space import and assembly protein 40 (Saccharomyces cerevisiae), P36046 (parent)
chain: MLRNLVVRNACRNRPSIQVARGLCRHQTRRLMASSPQFGRNSNQEKTAGFIMGILSMAGALYFIAPNRKPLFASRKVESDKTAEEELSSGGEQSPENEDDNNSKSDENGDDNDSKNDETEAGPQLGGDKIGASKVAEDGELVVLAEEDNKSSEDKDTDESKVSTKDDEQSNEDNATANNQKDENISSENSEENTSDKTLDNNAGSSEKKDPEHSDDEKSQQGQSDDKTTTEDNNGEEESSKKTVSDSENSAKQSESSDEEKEELRKQEEKQMGPTEEEVQHEGAYNPDTGEINWDCPCLGGMAHGPCGEEFKSAFSCFVYSEAEPKGIDCVEKFQHMQDCFRKYPEHYAEQLKETSDDEEPQDKVKVNTIESAPNVSSAKENAAKKAEQSDVKKEPLNEESKP
partner: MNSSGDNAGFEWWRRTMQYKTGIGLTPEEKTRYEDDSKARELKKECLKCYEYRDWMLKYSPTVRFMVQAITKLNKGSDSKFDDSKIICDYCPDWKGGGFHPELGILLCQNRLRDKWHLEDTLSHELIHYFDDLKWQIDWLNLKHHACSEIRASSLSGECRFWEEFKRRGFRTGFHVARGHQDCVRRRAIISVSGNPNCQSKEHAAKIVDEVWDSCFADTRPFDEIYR

Results on two variants are retold here after IntAct's records for PubMed 22990235.

In this test the parent is B1. Particulars: with atp23_yeast ATP23, P53722.
Regarding MLRNLVVRNACRNRPSIQVARGLCRHQTRRLMASSPQFGRNSNQEKTAGFIMGILSMAGALYFIAPNRKPLFASRKVESDKTAEEELSSGGEQSPENEDDNNSKSDENGDDNDSKNDETEAGPQLGGDKIGASKVAEDGELVVLAEEDNKSSEDKDTDESKVSTKDDEQSNEDNATANNQKDENISSENSEENTSDKTLDNNAGSSEKKDPEHSDDEKSQQGQSDDKTTTEDNNGEEESSKKTVSDSENSAKQSESSDEEKEELRKQEEKQMGPTEEEVQHEGAYNPDTGEINWDCPCLGGMAHGPCGEEFKSAESCFVYSEAEPKGIDCVEKFQHMQDCFRKYPEHYAEQLKETSDDEEPQDKVKVNTIESAPNVSSAKENAAKKAEQSDVKKEPLNEESKP [F315E], the “effect of a mutation on the interaction” value is “decreasing interaction”.
As for MLRNLVVRNACRNRPSIQVARGLCRHQTRRLMASSPQFGRNSNQEKTAGFIMGILSMAGALYFIAPNRKPLFASRKVESDKTAEEELSSGGEQSPENEDDNNSKSDENGDDNDSKNDETEAGPQLGGDKIGASKVAEDGELVVLAEEDNKSSEDKDTDESKVSTKDDEQSNEDNATANNQKDENISSENSEENTSDKTLDNNAGSSEKKDPEHSDDEKSQQGQSDDKTTTEDNNGEEESSKKTVSDSENSAKQSESSDEEKEELRKQEEKQMGPTEEEVQHEGAYNPDTGEINWDCPCLGGMAHGPCGEEFKSAFSCEVYSEAEPKGIDCVEKFQHMQDCFRKYPEHYAEQLKETSDDEEPQDKVKVNTIESAPNVSSAKENAAKKAEQSDVKKEPLNEESKP [F318E], the “effect of a mutation on the interaction” value is given as “decreasing interaction”.
